Assays:
malate dehydrogenase = malate dehydrogenase (UniProt P00346)
[1] = molecular target: Trypanosoma cruzi Hsp70B (Trypanosoma cruzi)
[2] = molecular target: Trypanosoma brucei Hsp70.c (Trypanosoma brucei brucei TREU927)

Chain of UniProt P00346 (P00346 25-338): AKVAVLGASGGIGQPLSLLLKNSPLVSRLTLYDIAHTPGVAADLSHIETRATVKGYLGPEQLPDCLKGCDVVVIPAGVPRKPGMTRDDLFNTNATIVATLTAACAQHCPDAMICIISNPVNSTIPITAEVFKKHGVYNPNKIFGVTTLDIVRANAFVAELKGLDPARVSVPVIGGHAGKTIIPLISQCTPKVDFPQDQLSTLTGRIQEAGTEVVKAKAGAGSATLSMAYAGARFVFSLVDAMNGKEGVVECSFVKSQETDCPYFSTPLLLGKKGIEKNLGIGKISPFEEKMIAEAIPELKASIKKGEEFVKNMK

Substance	suppression of thermal aggregation of MDH (0.72 µM, 48°C, light scatter at 360 nm, 30 min) by TbHsp70.c, dose-dependent; number printed for 0.5 µM TbHsp70.c (malate dehydrogenase)	stimulation of the basal ATPase activity of TcHsp70B by Tbj2 (colorimetric phosphate release, 37°C, 600 µM ATP); equal concentrations 1.39-fold, Tbj2 at 2-fold molar excess 2.62-fold [1]	stimulation of the basal ATPase activity of TbHsp70.c by Tbj2 (colorimetric phosphate release, 37°C, 600 µM ATP); equal concentrations 1.62-fold, Tbj2 at 2-fold molar excess 2.88-fold [2]
Trypanosoma brucei Hsp70.c (natural protein)	61.8%		
Trypanosoma brucei J protein 2 (natural protein)		2.62 fold	2.88 fold

From PMC3953656
